Assay results taken from US6890721.

Biological target: poly (ADP-ribose) polymerase (PARP)

B1: granzyme B-processed ICE LAP-6 (activated) (protein)
chain: IGSGGFGDVGALESLRGNADLAYILSMEPCGHCLIINNVNFCRESGLRTRTGSNIDCEKLRRRFSSLHFMVEVKGDLTAKKMVLALLELARQDHGALDCCVVVILSHGCQASHLQFPGAVYGTDGCPVSVEKIVNIFNGTSCPSLGGKPKLFFIQACGGEQKDHGFEVASTSPEDESPGSNPEPDATPFQEGLRTFDQLDAISSLPTPSDIFVSYSTFPGFVSWRDPKSGSWYVETLDDIFEQWAHSEDLQSLLLRVANAVSVKGIYKQMPGCFNFLRKKLFFKTSHHHHHH
With B1 the “PARP cleavage (immunoblot with anti-PARP monoclonal antibody C-2-10)” value was “Both granzyme B-processed Yama and ICE LAP-6 were active as determined by their ability to cleave PARP”.

B2: granzyme B-processed Yama (activated) (protein)
chain: SGISLDNSYKMDYPEMGLCIIINNKNFHKSTGMTSRSGTDVDAANLRETFRNLKYEVRNKNDLTREEIVELMRDVSKEDHSKRSSFVCVLLSHGEEGIIFGTNGPVDLKKITNFFRGDRCRSLTGKPKLFIIQACRGTELDCGIETDSGVDDDMACHKIPVEADFLYAYSTAPGYYSWRNSKDGSWFIQSLCAMLKQYADKLEFMHILTRVNRKVATEFESFSFDATFHAKKQIPCIVSMLTKELYFYH
B2 was tested, and the “PARP cleavage (immunoblot with anti-PARP monoclonal antibody C-2-10)” value was “Both granzyme B-processed Yama and ICE LAP-6 were active as determined by their ability to cleave PARP”.
